{"source": "the DeepSol protein solubility set", "data": [{"assay": "soluble on expression in E. coli; label from the status in PepcDB or PDB records", "values": [{"sequence": "MKVGQDKVVTIRYTLQVEGEVLDQGELSYLHGHRNLIPGLEEALEGREEGEAFQAHVPAEKAYGPHDPEGVQVVPLSAFPEDAEVVPGAQFYAQDMEGNPMPLTVVAVEGEEVTVDFNHPLAGKDLDFQVEVVKVREATPEELLHGHAHPSGHHHHHH", "soluble on expression in E. coli": "soluble"}, {"sequence": "MMDFSHIVSEDKIKRAIKDGDFQNLPGMGKPLPKMTRHTCRNRCAWAIVFLEHHHHHH", "soluble on expression in E. coli": "not soluble"}, {"sequence": "MKKIIGLVGTNSEQSTNRQLLQFMQHYFAQEADIELVEIVDFPMFNKPEDKVLPEIVKTVAEKIEAADGVIISTPEYDHAVPASLMNALSWLSYGIFPFVDKPVMITGASYGTLGSSRAQAHLRQILDAPELKARIMPSSEFLLAHSLQAFDENNALKDSEQIDKLAGLFADFCVFIEITEQLKHAHAQNKKEAENFSWETI", "soluble on expression in E. coli": "not soluble"}, {"sequence": "MVFDTHLHTLFSTDSKMNIEEAIDAGEKKNLGIIITEHIDLNYPVKGEFVFDIDKYFKEYNKYRSNKVLLGVEIGMGEEIKEQNKSINDKYEFDYVLGSIHLLNGLDLYEKTIYKSSPKKEVFEMYFKTMLACLRCHEYIDSLAHIDYISRYAAYHDGEIYYNEYSDYIDEVLKFIVDREIVIEINTRRLNKKEVCENLMPIYKRYSELGGRFVTIGSDSHYKDSIGLNFKNALKMAENCNLKPVFFEKRLMKYA", "soluble on expression in E. coli": "not soluble"}, {"sequence": "MGSDKIHHHHHHMSKFWEKEFTCPFCGTKFKKKMVFFDSIKIKARDIDLKPVFEDVNPMFYEVVTCPNCYFSAFDKDFETITIKGEETERKLKKLLEEAKKKVELKNVENHVEAIKRYALSGMVYSVLNQRKKVAISYLKIAWLFRELGKSEEEKRYLERALKEFESHYKYDYYEESDEPMILFYLGVLNQILGNRKEAARWYELLLRKYDGKSLYAKVGRERWQELRRS", "soluble on expression in E. coli": "not soluble"}, {"sequence": "MSAVNGLVPSTIFDRINSDMDVSEEMEEIREVLYEMIKTNFPMGVAATHLSEKYHEEFVSKGLGRELPEDWIQQVTAAEEFEAQTRGPITILFVRLSNTSSFKRPPINSVNVRVISTDREPTADELKKIKQRKENEPTEHAKTLSQQSVALKEGSTVSIVYADSPKRFFIRALADDDQYEKIGTTLAEIYAQETPPSALDSRVAIYEIVAGGAYALQDSNGTWFRVIAKQPPQSGQVMCHFVDVGVCEKFPVAAIRLLPPAVHPVMSIGSMAREVRMDVSEEESLRLNNKFVDLTFETKDDGIQVPINLTLSKFDSSDSESLPVVDLQSSDGLSITEFLKKPSGVVRLSTPTKTTSPITPASASTSSLTCLFDKPATIQPMTVAQMPMSAFPANAIFAAGPTDISLRQLSLDPMPDYMYAKLKDECALPDSQLESSPDFGGFYAAFIDDRWERVQCIRASKIDKQAYCVYLLDVGAFQYVRKEAMRRLNSTSPFKKMLMFKCKIGGIKPVAGGEVWSRESHEAVREFFEAACGEPVVVEPTQPGWSQWKQLNAPAVPTCEARLSCCGRDIGDWLIACGLALPINAPIPSPNSQSLLTFVPTPINIVGRNI", "soluble on expression in E. coli": "not soluble"}, {"sequence": "MGSDKIHHHHHHMIISVINLKGGSGKTTTAMALATAAARHNRNVSVLDTDPQGDATTWAGDAEDAGETLPFTVDSANIGKLKRLRKTMADDELVIIDCPPAGNVVDVACDVSDFVIVPATQGPFELSHALETAESLDAAGKPYALLLLKVENNKLAGNAVNLIRERGASVFDASVPKRVGMQKVIGHAFPSNLNGYEDVYSELEEVIA", "soluble on expression in E. coli": "not soluble"}, {"sequence": "MTATAQQLEYLKNSIKSIQDYPKPGILFRDVTSLLEDPKAYALSIDLLVERYKNAGITKVVGTEARGFLFGAPVALGLGVGFVPVRKPGKLPRETISETYDLEYGTDQLEIHVDAIKPGDKVLVVDDLLATGGTIEATVKLIRRLGGEVADAAFIINLFDLGGEQRLEKQGITSYSLVPFPGH", "soluble on expression in E. coli": "soluble"}, {"sequence": "SLPHPAPGPGDPEDPRLAEVVDAVRSSRRYQSVAPETVRRLATSALVASRGDLAEAVKRTKRGLHEIFGAYLPSPPKYDALLRQLRGAVDAATTRPCGHPAPRHVHARLHPRALPILDEFYREVFARCADPASVRDLACGMNPLAAPWMPGSDAFTYHASDIDTRLMEFLDAALETLGVAHDVRVRDLMTGVGEVETDVTLLLKTVPCIEAQGRGQGWDLIDAIRSPLVVVSFPTKSLGQRSKGMFNTYSANFDAWLENRPHDVEQLEFRNELVYFVRKNA", "soluble on expression in E. coli": "soluble"}, {"sequence": "MIRFIIPLMDCARLYGRPVQFKTERTDINSLMFGLPKLPSVDYFAEEEIAHLMTQEFNPLKEKDTDDTMALTMSRFSSYLQERMTKVSKRNTELNFRTFSDVMGMYNTTRDHSKLNCMSDKDNSVKEFSLSDKSNVSSETTNMMNQLQVNAHEYKSSMCERPIVASTSPIA", "soluble on expression in E. coli": "not soluble"}, {"sequence": "MNILLAGGSGLIGQELVRGMGEEHHYTVLGRDKDAIQKIFTTKASSLSWDELNTQDASRFDAVINLCGVNIAISRWTPKIKEEIISSRVQTTENLLHWILQQNAKPRFYCANAVGIYGLQENGDATDLTEDTAINWEHPKDYLSEVGIRWQQALQKAEEAGLPVTSTRFGVVLKKGKGFLGKLYPSFICGLGSTIGDGRQYLSWIDSEDLVNAYRFLLNHPEITGPVNVTSPNPCMQREFAKAFAKSLHRPLLLWTPAFIIHLLFGEMGDCLINHGQKVKPKRLLEAGFEFKWPDIEKALKHQYSAILEHHHHHH", "soluble on expression in E. coli": "soluble"}, {"sequence": "MWEHDIVLEKIVDPVPDALYPCCIKAVRVGLKEDSWGEVQAIEEEMSTAELTANVNVALAPFQRKVVKEEGEAKKTKRAASKGRVEEVEQDVWKTLFDQALAYRDLAPWTWMDDDQIFAVVTPDGESLYCTVIGALGQEYGLVIYMGEEGYACLQDILSGTLHPKDAVFKERALLVSLAPRNHLERDDKALLRKHHIPVSGKQLLPMFRSFVPGYYPWFLSEEEAAWAAMALEQAVVVAERLRDGELFLASSARGNRLFARIAERREDGLHWRDGWVPPPKAKKKETSALDIGTDELAKAKTLERAPLFVEFSVAYVNRPIQERRWERPYFPLLVLAADAASGVILHHQVFRGQTDAKTLQQSFLAFARALGCVPSHVRVTKEHGPLLAPLLRELGVNMSTGPTPRSDEVRELFEQFAI", "soluble on expression in E. coli": "not soluble"}, {"sequence": "MGSDKIHHHHHHMADRMQWANALSTRPSLEAAVTDVVQRAVSTLTAPADLGLVFISSAFASEYSRVLPLLAEQLSVPVMIGCSGGGVIGTAASGQTQELEAEAALSLTLAHLPGVNLQVFHVLGEELPDLDSPPDTWINLIGVPPSPTPHFILLSSAFSSGINDLLQGLDFAYPGSVILGGQASVGGMGGRLALFCNGSLHREGTVGLALSGNIVLEPIVAQGCRPIGEPLQVTKAERNIILELDEKVPLVVLRDLIASLSEKERALAQHSLFVGVAMDEFKLSLQQGDFLIRSILGVDPSGGAIAIGDLVRPGQRLQFHLRDSQASAEELEFLLERYQTKPEFDNSAVGALMFSCVGRGEGLYGKPNFDSELFKRYIQDVPVGGFFCGGEIGPVGGRTFLHGYTSVFGICRELSVED", "soluble on expression in E. coli": "not soluble"}, {"sequence": "MGRSATPEGDPARTMELLWGGGSTPISRPRNGKPGLTLDRIVETAVSVADAEGLDAVSMRRLASELGAGAMSLYTHVPGKTELVEVMLDRALSTLEPADDADEGWRERLAAAAHDYFHLLCAHPWMLGVVALSRPVLGPGGMAKYERELRAVEGLGLSDLDMDSVVTLLDSFVAGAARAAVDAAALAAQGEADSEWWQRVAPHFEKVFDPDRFPLAARVGASAGEHHDAAYVPAHAFEFGLTRLLDGVGALIVDGGTGGE", "soluble on expression in E. coli": "not soluble"}, {"sequence": "MSFKDFSFEFNGEPIHFSITSHPDKDLVHFNSTGRIGQVIEVIQPPEILSSQLSDQQRVEYELKSLLGNPELPGVELFIRRFVIHFAGTNQRKSALFVFGIDLDGIPNECIAAALQALEENH", "soluble on expression in E. coli": "not soluble"}, {"sequence": "MGSDKIHHHHHHMLLEKLNWRYAAKKMDPAKVVSEDKVERIVEAARLAPTSSGLQPFEIIVVTNAEVREKIKAIGWNQSPITDGSHLLVFAAWDNYTAERINHMFDLVNEVRGFRNEGWENYRQMLLSAYPQRDPETNFEHAARQAYIAFGLALAQAAFEGVDATPMEGFDPKALDEILGLRERGLRSVTIAPLGYRQVEGDWLVNLQKVRRPRDQFVTEVK", "soluble on expression in E. coli": "not soluble"}, {"sequence": "MIEAALENPVPIKSQLSPTPRYFGSCKWFNVSKGYGFVIDDITGEDLFVHQSNLNMQGFRSLDEGERVSYYIQERSNGKGREAYAVSGEVEGQGLKGSRIHPLGRKKAVSLRCFRCGKFATHKAKSCPNVKTDAKVCYTCGSEEHVSSICPERRRKHRPEQVAAEEAEAARMAAEKSSPTTSDDDIREKNSNSSDE", "soluble on expression in E. coli": "soluble"}, {"sequence": "MGSDKIHHHHHHMARARTQYKCRSCGYISASYLGRCPNCGAWNQFEKESQEVRQTSTKATPSRLMASVGAKEAVKMSTVKAEKEERVLTKSSELNRVLGGGIVPGSLVLIGGDPGIGKSTLMLQIMSELAEKYKVLYVSGEESASQIKLRADRLGLGQSPMLLYPESNMEHIRDQIDDVKPDFVVIDSIQTMNEPSLDSMVGSASQVREVTAELMKIAKLDQVTVFVIGHVTKEGSIAGPKILEHMVDTVLYFEGDEHHAYRILHSVKNRFGAANEIGMFEMKTEGLAEVTNPSAVFLDERLPDSTGSAVVVSLEGTRPIL", "soluble on expression in E. coli": "not soluble"}, {"sequence": "GPGSMLRRCAPLLIGVEGDTFVSAIKDKQYLAHRLAILGKEDPNFKAQCMSDDDIKRFTTSLGSAESLFNKQAGAIPTNVVDEETGRVIGSTQPDPTRYGDWEVNGRCYDF", "soluble on expression in E. coli": "soluble"}, {"sequence": "QQQHKVLKTVKVTEQLKHCSEILKEMLAKKHLPYAWPFYNPVDADALGLHNYYDVVKNPMDLGTIKGKMDNQEYKDAYEFAADVRLMFMNCYKYNPPDHEVVAMARTLQDVFELHFAKIPDEPIES", "soluble on expression in E. coli": "soluble"}, {"sequence": "MFDRLLSQFGRKRVASESVATQQQLTDRTNVYTVKPQDPLLDKKQKMTPVQKVCLKCLAGESGHITHVLSSLSN", "soluble on expression in E. coli": "not soluble"}, {"sequence": "MLSVDYENFDLISYLYNLVRQIPDGMVSTYGDLAEALGDPVAARSVGFMLSINKEPDYIPCYKVVPHDGSVGNYTHPLGSAEKMRRLIRDGITITNGHISNFEKVRFREFKTDYPLRKLRELQFKIGRLYDDRNDYSLDTIAAFDVSYKETRGYASKVVYNKGKIGAYVYSSDSMFPYIPGYLAFKEFKFIRALYDNETMILIDGNGILHPRFAGLATHAGVSLKTASIGIAKHLINCTVKGSDLLISGVVAGKMIGHHTIVSPGNRINVEEAGRLIEQREGKEMRSLLRLAHNLTRLHIETNGNIARYDFSTRNTAIQSSLEHHHHHH", "soluble on expression in E. coli": "not soluble"}, {"sequence": "KLKIVEVPQEELFRDDDLLKSVYGILVTAHYRNSPDDLMLLGDMAFQKVIVGYSSENPVAVCQVVYEGGLTDKQIWDISNGLKNEGHLIPHRLIKYMRALDFGKLKGWRIMRIAVSPENQGKGIGSRVIEEVIKMAKGVDWIGSSFVADYSVLRFWIKNGFLPVYLSSIKNEE", "soluble on expression in E. coli": "not soluble"}, {"sequence": "MSLQTIKIGLPVPLSGPYGAEAQDQVRNAELAVKQFNDAGGLDGRKAQLLVRDDRLNPAEAATRALELIEKDGVNFIVGGLSAATQLSINNVTRQRKKLYISISQSDAINEAADASPYTFHEALNPHMTTQAVGKYVFKPGMRVAFLTADYAYGHEMTRGFTEVARQQGAEVVGEVKHPLGASDYSAFLPRLKALNPDVLVFNNFGADNRISIKQAADFGMKRNIRFVTPILTYTARVSGGAATYQDVVGGTQYYWAIQDSVPSAKAFNAAFQAENNGRFPSDYGAMAYSAVKSLLLAVRDAGSTDTDEVAAALRKLKYDTYKGAQYYRGCDQQSVQSVLVIQSVGKDNAHPDEVFKLLHTEAPSEGHHHHHH", "soluble on expression in E. coli": "soluble"}, {"sequence": "MGSDKIHHHHHHMALGHRVKEAREFRSLKQGELAELIGWTQQALSTLENRDSKKSSYSAQISKALDIDIDWLISGAGEMINTKKEAKSAKKLIKYVPVKGSAQMGDNGFWSELDYMGAGGDGYLEVNNASDSAYVIRAVGDSMFPAIRSGWYIVFDPSREACSGEYVHIVLKDGRNMVKEYVSCQHGIVNLISVNGMERISFNCEDVDVLNPFVEIQPPSRLRDDLDLFDTKCEEM", "soluble on expression in E. coli": "not soluble"}]}]}
